Laboratory results as given in patent US5503978.

Legend:
[1] = tested on: AMV reverse transcriptase (Avian myeloblastosis virus); conditions: intramolecular 3' extension to end of template; 100 nM RT
[2] = target: T1, HIV-1 reverse transcriptase (HIV-1) (UniProt P04585+P04585); test: filter; conditions: apparent Kd of degenerate library
[3] = target: T1, HIV-1 reverse transcriptase (HIV-1); test: inhibition; conditions: almost no inhibition at 81 nM

**Q.** For “ATCCGCCTGATTAGCGATACTTACGTGAGCGTGCTGTCCCCTAAAGGTGATACGTCACTTGAGCAAAATCACCTGCAGGGG [RT26]”, which activity [1] is on record?
**A.** 50 % initiation

**Q.** “CCCCTGCAGGTGATTTTGCTCAAGTNNNNNNNNNNNNNNNNNNNNNNNNNNNNNNNNNNNAGTATCGCTAATCAGGCGGAT [R0 degenerate 35N ssDNA library]” was tested. Which Kd [2] did it give?
**A.** 1.4 µM

**Q.** What about the Ki [3] of the same sequence?
**A.** > 3 µM
